T1: Pseudomonas exotoxin A (PEx), P11439
T1 chain: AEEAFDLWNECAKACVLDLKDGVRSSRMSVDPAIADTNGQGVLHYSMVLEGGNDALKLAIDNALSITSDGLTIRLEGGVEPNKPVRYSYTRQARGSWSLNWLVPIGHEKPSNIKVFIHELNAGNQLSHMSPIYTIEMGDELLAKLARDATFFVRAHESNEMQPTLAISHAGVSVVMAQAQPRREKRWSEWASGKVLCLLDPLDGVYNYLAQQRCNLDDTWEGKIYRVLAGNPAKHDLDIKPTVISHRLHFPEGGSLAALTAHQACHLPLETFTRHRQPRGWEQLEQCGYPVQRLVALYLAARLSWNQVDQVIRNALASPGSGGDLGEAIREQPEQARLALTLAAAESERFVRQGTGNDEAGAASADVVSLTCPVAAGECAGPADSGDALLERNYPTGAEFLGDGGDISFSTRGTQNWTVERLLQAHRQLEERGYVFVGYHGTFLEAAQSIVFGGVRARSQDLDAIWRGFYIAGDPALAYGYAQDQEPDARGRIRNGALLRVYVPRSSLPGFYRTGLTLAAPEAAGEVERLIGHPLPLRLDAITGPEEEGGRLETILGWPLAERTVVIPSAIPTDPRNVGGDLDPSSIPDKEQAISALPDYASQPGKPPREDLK

B1: Recombinant human PC5/6 (protein)
chain: DYDFSRAQSTYFNDPKWPSMWYMHCSDNTHPCQSDMNIEGAWKRGYTGKNIVVTILDDGIERTHPDLMQNYDALASCDVNGNDLDPMPRYDASNENKHGTRCAGEVAAAANNSHCTVGIAFNAKIGGVRMLDGDVTDMVEAKSVSFNPQHVHIYSASWGPDDDGKTVDGPAPLTRQAFENGVRMGRRGLGSVFVWASGNGGRSKDHCSCDGYTNSIYTISISSTAESGKKPWYLEECSSTLATTYSSGESYDKKIITTDLRQRCTDNHTGTSASAPMAAGIIALALEANPFLTWRDVQHVIVRTSRAGHLNANDWKTNAAGFKVSHLYGFGLMDAEAMVMEAEKWTTVPRQHVCVESTDRQIKTIRPNSAVRSIYKASGCSDNPNRHVNYLEHVVVRITITHPRRGDLAIYLTSPSGTRSQLLANRLFDHSMEGFKNWEFMTIHCWGERAAGDWVLEVYDTPSQLRNFKTPGKLKEWSLVLYGTSVQPYSPTNEFPKVERFRYSRVEDPTDDYGTEDYAGPCDPECSEVGCDGPGPDHCNDCLHYYYKLKNNTRICVSSCPPGHYHADKKRCRKCAPNCESCFGSHGDQCMSCKYGYFLNEETNSCVTHCPDGSYQDTKKNLCRKCSENCKTCTEFHNCTECRDGLSLQGSRCSVSCEDGRYFNGQDCQPCHRFCATCAGAGADGCINCTEGYFMEDGRCVQSCSISYYFDHSSENGYKSCKKCDISCLTCNGPGFKNCTSCPSGYLLDLGMCQMGAICKDATEESWAEGGFCMLVKKNNLCQRKVLQQLCCKTCTFQG
B2: Recombinant human PC7 (protein)
chain: SVHFNDPKYPQQWHLNNRRSPGRDINVTGVWERNVTGRGVTVVVVDDGVEHTIQDIAPNYSPEGSYDLNSNDPDPMPHPDVENGNHHGTRCAGEIAAVPNNSFCAVGVAYGSRIAGIRVLDGPLTDSMEAVAFNKHYQINDIYSCSWGPDDDGKTVDGPHQLGKAALQHGVIAGRQGFGSIFVVASGNGGQHNDNCNYDGYANSIYTVTIGAVDEEGRMPFYAEECASMLAVTFSGGDKMLRSIVTTDWDLQKGTGCTEGHTGTSAAAPLAAGMIALMLQVRPCLTWRDVQHIIVFTATRYEDRRAEWVTNEAGFSHSHQHGFGLLNAWRLVNAAKIWTSVPYLASYVSPVLKENKAIPQSPRSLEVLWNVSRMDLEMSGLKTLEHVAVTVSITHPRRGSLELKLFCPSGMMSLIGAPRSMDSDPNGFNDWTFSTVRCWGERARGTYRLVIRDVGDESFQVGILRQWQLTLYGSVWSAVDIRDRQRLLESAMSGKYLHDDFALPCPPGLKIPEEDGYTITPNTLKT
B3: Recombinant rat PACE4 (protein)
chain: QARSDSLYFNDPIWSNMWYMHCADKNSRCRSEMNVQAAWKRGYTGKNVVVTILDDGIERNHPDLAPNYDSYASYDVNGNDYDPSPRYDASNENKHGTRCAGEVAASANNSYCIVGIAYNAKIGGIRMLDGDVTDVVEAKSLGIRPNYIDIYSASWGPDDDGKTVDGPGRLAKQAFEYGIKKGRQGLGSIFVWASGNGGREGDHCSCDGYTNSIYTISVSSTTENGHKPWYLEECASTLATTYSSGAFYERKIVTTDLRQRCTDGHTGTSVSAPMVAGIIALALEANNQLTWRDVQHLLVKTSRPAHLKASDWKVNGAGHKVSHLYGFGLVDAEALVLEARKWTAVPSQHMCVATADKRPRSIPVVQVLRTTALTNACADHSDQRVVYLEHVVVRISISHPRRGDLQIHLISPSGTKSQLLAKRLLDFSNEGFTNWEFMTVHCWGEKAEGEWTLEVQDIPSQVRNPEKQGKLKEWSLILYGTAEHPYRTFSSHQSRSRMLELSVPEQEPLKAEGPPPQAETPEEEEEYTGVCHPECGDKGCDGPSADQCLNCVHFSLGNSKTNRKCVSECPLGYFGDTAARRCRRCHKGCETCTGRSPTQCLSCRRGFYHHQETNTCVTLCPAGLYADESQRLCLRCHPSCQKCVDEPEKSTVCKEGFSLARGSCIPDCEPGTYFDSELIRCGECHHTCRTCVGPSREECIHCAKSFHFQDWKCVPACGEGFYPEEMPGLPHKVCRRCDENCLSCEGSSRNCSRCKAGFTQLGTSCITNHTCSNADETFCEMVKSNRLCERKLFIQFCCRTCLLAG
B4: Recombinant human PC4 (protein)
chain: SVVVPTDPWFSKQWYMNSEAQPDLSILQAWSQGLSGQGIVVSVLDDGIEKDHPDLWANYDPLASYDFNDYDPDPQPRYTPSKENRHGTRCAGEVAAMANNGFCGVGVAFNARIGGVRMLDGTITDVIEAQSLSLQPQHIHIYSASWGPEDDGRTVDGPGILTREAFRRGVTKGRGGLGTLFIWASGNGGLHYDNCNCDGYTNSIHTLSVGSTTQQGRVPWYSEACASTLTTTYSSGVATDPQIVTTDLHHGCTDQHTGTSASAPLAAGMIALALEANPFLTWRDMQHLVVRASKPAHLQAEDWRTNGVGRQVSHHYGYGLLDAGLLVDTARTWLPTQPQRKCAVRVQSRPTPILPLIYIRENVSACAGLHNSIRSLEHVQAQLTLSYSRRGDLEISLTSPMGTRSTLVAIRPLDVSTEGYNNWVFMSTHFWDENPQGVWTLGLENKGYYFNTGTLYRYTLLLYGTAEDMTARPTGPQVTSSACVQRDTEGLCQACDGPAYILGQLCLAYCPPRFFNHTRLVTAGPGHTAAPALRVCSSCHASCYTCRGGSPRDCTSCPPSSTLDQQQGSCMGPTTPDSRPRLRAAACPHHRCPAS

How the values were obtained:
[1] = target: T1, Pseudomonas exotoxin A (PEx), P11439
[2] = target: recombinant H5 precursor (HA0)
[3] = target: Anthrax Protective Antigen-83 (PA83), P13423
Anthrax Protective Antigen-83 (PA83), P13423, sequence (P13423 whole entry, looked up): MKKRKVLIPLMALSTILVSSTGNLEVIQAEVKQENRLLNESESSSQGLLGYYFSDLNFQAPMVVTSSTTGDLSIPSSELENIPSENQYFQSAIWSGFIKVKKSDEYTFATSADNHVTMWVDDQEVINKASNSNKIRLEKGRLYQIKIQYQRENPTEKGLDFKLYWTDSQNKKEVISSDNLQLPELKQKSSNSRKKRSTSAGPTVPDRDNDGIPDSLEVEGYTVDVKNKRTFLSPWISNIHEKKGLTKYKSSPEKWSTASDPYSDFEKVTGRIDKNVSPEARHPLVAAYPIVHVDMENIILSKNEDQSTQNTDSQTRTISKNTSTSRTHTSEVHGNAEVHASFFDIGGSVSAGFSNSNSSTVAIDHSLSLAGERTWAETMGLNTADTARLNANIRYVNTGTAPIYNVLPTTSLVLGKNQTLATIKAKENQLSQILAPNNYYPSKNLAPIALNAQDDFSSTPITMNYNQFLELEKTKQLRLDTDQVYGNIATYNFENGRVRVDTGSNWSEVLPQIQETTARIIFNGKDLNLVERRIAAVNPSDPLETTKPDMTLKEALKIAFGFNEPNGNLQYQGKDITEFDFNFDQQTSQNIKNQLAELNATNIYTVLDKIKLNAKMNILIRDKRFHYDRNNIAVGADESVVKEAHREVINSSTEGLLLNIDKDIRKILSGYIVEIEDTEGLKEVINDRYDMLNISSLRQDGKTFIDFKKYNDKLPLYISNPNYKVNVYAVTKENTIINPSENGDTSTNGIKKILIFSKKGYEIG

Protein	in vitro cleavage at pH 5.5 (Western blot) [1]	in vitro cleavage of biotin-labeled substrate (Western blot) [2]	in vitro cleavage of biotin-labeled substrate (Western blot) [3]
B1	readily processed	efficiently cleaved	
B2		other PCs were less efficient	PACE4 and PC7 were less effective
B3		other PCs were less efficient	PACE4 and PC7 were less effective
B4	readily processed	other PCs were less efficient	
